# Experimental data taken from PMC9452770.
# Biological target: VaERF16-GFP (Vitis amurensis 'Shuang You')
substance,measurement,value
VaMYB306-HA (natural protein),dual-luciferase assay in tobacco leaves: activation of the VaPDF1.2 promoter (LUC/REN) by 62-SK-VaERF16 and 62-SK-VaMYB306 co-expressed (untagged full-length effectors),3.5 fold
